PMC10954369

Molecular target: T1, GST-JunB (mouse, UniProt P09450 1-344)
T1 sequence: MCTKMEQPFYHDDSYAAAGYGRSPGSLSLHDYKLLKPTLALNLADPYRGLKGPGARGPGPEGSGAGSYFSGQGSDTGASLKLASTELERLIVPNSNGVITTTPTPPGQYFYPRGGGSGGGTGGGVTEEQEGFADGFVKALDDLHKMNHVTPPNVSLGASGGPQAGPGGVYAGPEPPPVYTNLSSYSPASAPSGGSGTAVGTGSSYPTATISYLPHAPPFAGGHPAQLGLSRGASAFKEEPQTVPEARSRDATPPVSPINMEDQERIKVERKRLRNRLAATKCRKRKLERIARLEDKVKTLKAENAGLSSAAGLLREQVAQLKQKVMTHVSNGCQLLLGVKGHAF
Assay: EMSA

B1: Erra promoter TRE probe WT (-1305/-1315) (dsDNA)
DNA 1: AGTGAGTGACTCAGAGGACTT
DNA 2: AAGTCCTCTGAGTCACTCACT
- binding result: binds
